# From patent US5677159A, “Genomic DNA of human cholesterol 7α-hydroxylase and methods for using it” (Northeastern Ohio University, priority 1995, dated 1997)
# Test system: T1, CC(C)CCC[C@@H](C)[C@H]1CC[C@H]2[C@@H]3CC=C4C[C@@H](O)CC[C@]4(C)[C@H]3CC[C@]12C
# T1 construct: Met-Ala (from the NcoI cloning site) in front of Arg25 (N); made in house; host or cells: E. coli TOPP3 carrying pJL/H7α1.5 (ATCC 69401)
# Experiment: Reconstitution assay of cholesterol 7α-hydroxylase activity at different concentrations of cholesterol (Lineweaver-Burke plot)
# Type: biochemical, human
# Conditions: other: purified truncated enzyme reconstituted with NADPH-cytochrome P450 reductase and phospholipid, 1 mM NADPH, 37° C., 20 minutes, pH 7.4
# Description: FIG. 10 illustrates a Lineweaver-Burke plot of activities of truncated human and truncated rat cholesterol 7α-hydroxylase in E. coli. Truncated CYP7 activity was measured using a reconstitution assay, such as that described in Example 10, at different concentrations of cholesterol, as indicated. Linear regression was used to draw the line.
# The truncated enzyme was purified from recombinant bacteria. Purification methodology is described by Li and Chiang, J. Biol. Chem. 266 (29): 19186 (1991), the contents of which are expressly incorporated by reference herein in its entirety. The activity of CYP7, in both the presence and absence of the compound, is measured as described by Chiang, Meth. Enzym. 206: 483 (1991), the contents of which is expressly incorporated by reference herein in its entirety. […]
# The Km and Vmax for cholesterol have been determined in comparison with the truncated, bacterially expressed rat CYP7 enzyme (FIG. 10). […]
substance,measurement,value
"truncated human cholesterol 7α-hydroxylase (CYP7), amino acids 1 to 24 of the membrane anchor region deleted, SEQ ID NO:5, expressed in E. coli TOPP3-pJL/H7α1.5 (Homo sapiens)",Km,5.85 µM
same,Vmax,0.13 nmol/min
